{
  "source": "paper PMC5353646",
  "about": "“Allosteric modulation of peroxisomal membrane protein recognition by farnesylation of the peroxisomal import receptor PEX19” (Nature Communications, 2017)",
  "molecules": {"B1": {"name": "PEX19 CTD: human PEX19 C-terminal domain (residues 161–299) (protein)", "chain": "GMDEGDGEGNILPIMQSIMQNLLSKDVLYPSLKEITEKYPEWLQSHRESLPPEQFEKYQEQHSVMCKICEQFEAETPTDSETTQKARFEMVLDLMQQLQDLGHPPKELAGEMPPGLNFDLDALNLSGPPGASGEQCLIM", "modifications": "left off: His6, end not stated, cleaved"}, "B2": {"name": "I195K: PEX19 CTD variant I195K (helix α2) (protein)", "chain": "B1 chain with I35K", "modifications": "farnesyl group on Cys296 (CaaX box); left off: His6, end not stated, cleaved"}, "B3": {"name": "M179R farn: farnesylated PEX19 CTD variant M179R (protein, UniProt P40855 161-299, looked up, variant M179R)", "chain": "B1 chain with M19R", "modifications": "C-terminal domain farnesylated"}, "B4": {"name": "I195K farn: farnesylated PEX19 CTD variant I195K (protein, UniProt P40855 161-299, looked up, variant I195K)", "chain": "B1 chain with I35K", "modifications": "C-terminal domain farnesylated"}, "B5": {"name": "M179R: PEX19 CTD variant M179R (helix α1) (protein)", "chain": "B1 chain with M19R", "modifications": "left off: His6, end not stated, cleaved"}, "B6": {"name": "M255R farn: farnesylated PEX19 CTD variant M255R (protein, UniProt P40855 161-299, looked up, variant M255R)", "chain": "B1 chain with M95R", "modifications": "C-terminal domain farnesylated"}, "B7": {"name": "PEX19 CTD farnesylated: human PEX19 CTD (residues 161–299) farnesylated in vitro (protein)", "chain": "B1 chain", "modifications": "farnesyl group on Cys296 (CaaX box); left off: His6, end not stated, cleaved", "notes": "human PEX19 CTD (residues 161–299) farnesylated in vitro"}, "B8": {"name": "PEX19 I195K: full-length PEX19 variant I195K (protein, UniProt P40855 1-299, looked up, variant I195K)", "chain": "MAAAEEGCSVGAEADRELEELLESALDDFDKAKPSPAPPSTTTAPDASGPQKRSPGDTAKDALFASQEKFFQELFDSELASQATAEFEKAMKELAEEEPHLVEQFQKLSEAAGRVGSDMTSQQEFTSCLKETLSGLAKNATDLQNSSMSEEELTKAMEGLGMDEGDGEGNILPIMQSIMQNLLSKDVLYPSLKEKTEKYPEWLQSHRESLPPEQFEKYQEQHSVMCKICEQFEAETPTDSETTQKARFEMVLDLMQQLQDLGHPPKELAGEMPPGLNFDLDALNLSGPPGASGEQCLIM", "modifications": "full-length"}, "B9": {"name": "PEX19 P273F/P274F: full-length PEX19 with two lid prolines replaced by phenylalanine (protein, UniProt P40855 1-299, looked up, variant P273F P274F)", "chain": "B8 chain with K195I, P273F, P274F", "modifications": "full-length", "notes": "full-length PEX19 with two lid prolines replaced by phenylalanine"}},
  "key": {"farnesylated PEX19 CTD": {"biological_target": "T1, farnesylated PEX19 CTD (Homo sapiens, UniProt P40855)", "T1 construct": "we studied the human PEX19 CTD (residues 161–299) that includes the native C-terminus; hexahistidine (TEV-cleavable) (cleaved yes); made in house; host or cells: Escherichia coli BL21 (DE3); farnesylated in vitro with recombinant S. cerevisiae farnesyl transferase", "T1 sequence (P40855 161-299)": "B1 chain", "test": "NMR titration of farnesylated PEX19 CTD with PMP peptides", "assay_type": "binding", "conditions": "1H,15N HSQC, 298 K, ALDP at 5 and 10 molar ratio with 100 μM PEX19 CTD, PEX13 at 1:1.5 and 1:0.5 with 50 μM"}, "[1]": {"test": "15N NMR relaxation, tumbling correlation time", "assay_type": "physicochemical", "conditions": "for tumbling correlation time τc: 15N R2/R1 ratio, 750 MHz, 298 K, PEX19 CTD residues 161–299; for oligomeric state in solution: from τc, 15N NMR relaxation", "excerpt": "NMR spectra were acquired at 298 K on a Bruker Avance III 600-MHz spectrometer with a TCI cryo-probe head, an Avance III 750-MHz spectrometer with a TXI probe head, or an Avance 900 instrument with a TXI cryo-probe head. Spectra were processed using NMRPipe[31] and analysed with Sparky[32]. Backbone assignment was done semi-automatically with MARS[33]. Backbone and side chain assignments were obtained from HNCA, HNCACB, CBCA(CO)NH, H(C)CH-TOCSY and (H)CCH-TOCSY spectra. ^13C- and ^15N- edited NOESY spectra with a mixing time of 70 ms were recorded to derive distance restraints. For NOEs between PEX19 and the farnesyl group, isotope-edited and filtered 3D NOESY spectra (70 and 100 ms mixing times) were acquired using specific isotope-labelled samples. ^15N R1, R2 relaxation rates and {^1H}-^15N heteronuclear NOEs were recorded at an Avance III 750 MHz spectrometer. Local correlation times were derived from the ^15N R2/R1 ratio[35]. For determination of solvent paramagnetic relaxation enhancement rates, gadolinium diethylene-triamine-penta-acetic-acid bismethylamide (Gd(DTPA-BMA)) was titrated to the protein samples[36][37][38]. Saturation recovery ^1H,^15N HSQC experiments with recovery times from 0.01 to 3 s were recorded at concentrations of 0, 1, 2, 3, 5, 7 and 10 mM Gd(DTPA-BMA). Peak intensities were fitted to an exponential recovery function according to equation I(τ)=I0−Aexp(−R1τ), where τ is the recovery delay, I(τ) is the peak intensity measured for the recovery delay τ, I0 is the maximum peak intensity, R1 is the longitudinal proton relaxation rate and A is the signal amplitude. To obtain the sPRE value, the proton R1 rates were collected for all measured concentrations of Gd(DTPA-BMA) cpara and a linear regression for the equation R1 (cpara)=msPRE cpara+ [drawing 1] was performed, where R1 (cpara) is the proton R1 measured at the concentration cpara of the paramagnetic compound, the slope msPRE corresponds to the sPRE and [drawing 2] is the fitted proton R1 in the absence of the paramagnetic compound[36]. For NMR titrations an ALDP peptide (sequence: AAKAGMNRVFLQRLL, residues 62–76 of human ALDP) was dissolved to a concentration of 5 mM in NMR buffer and added to ^15N-labelled PEX19 CTD with and without farnesylation in the same buffer up to a protein-peptide molar ratio of 1:10."}, "[2]": {"test": "Hydrophobic interaction chromatography", "assay_type": "physicochemical", "conditions": "Butyl Sepharose FF, linear decreasing (NH4)2SO4 650–0 mM, 20 ml, 280 nm; for elution volume after start of the gradient: 20 mM potassium phosphate, pH 6.5, 50 mM NaCl, 500 μg protein; for ΔV, difference in elution volume between farnesylated and non-farnesylated protein: pH 6.5", "experimental": "Purified PEX19 CTD and variants were adjusted to a buffer containing 650 mM (NH4)2SO4 and 500 μg protein was subjected to equilibrated Butyl Sepharose FF column (20 mM potassium phosphate, pH 6.5, 50 mM NaCl and 650 mM (NH4)2SO4). After washing, bound protein was eluted with linear decreasing (NH4)2SO4 concentrations (650–0 mM (NH4)2SO4, 20 ml). Eluted proteins were detected using 280 nm absorption. The binding strength is indicated by the elution volume and correlates with protein hydrophobicity."}, "[3]": {"tested_on": "PEX19-deficient human fibroblasts (ΔPEX19 T)", "test": "Functional complementation of PEX19-deficient fibroblasts (peroxisomal protein import)", "assay_type": "cell-based", "conditions": "full-length PEX19 variants, 72 h after transfection", "excerpt": "A bicistronic expression plasmid coding for eGFP-PTS1 and non-tagged PEX14 (pMF1220)[43] was kindly provided by Marc Fransen (Leuven, Belgium). pIRES2-HsPEX19-eGFP-PTS1 was constructed by replacing the open reading frame of PEX14 (BglII/SalI) with a DNA-cassette encoding the full-length open reading frame of human PEX19 as derived from BamHI/SalI digestion of pAH05 (ref. [44]). Single point mutations were introduced into the PEX19 sequence by Quickchange XL Site-directed Mutagenesis kit (Stratagene) using primer pairs (Supplementary Table 1). The bicistronic expression vectors coding for PEX19 variants and eGFP-PTS1 were transfected into the human cell-line ΔPEX19 T which was derived from PEX19-deficient Zellweger patient fibroblasts. ΔPEX19 T cells, characterized by a defect in peroxisome biogenesis were routinely authenticated by functional complementation assays as described below and checked for mycoplasma contamination using Venor GeM Advance Mycoplasm Detection Kit (Minerva Biolabs). The efficiency of transfection according to the Amaxa Cell Line Nucleofector Kit R protocol (Lonza Cologne AG) was always around 90%. After 72 h of transfection, cells were subjected to fluorescence and immunofluorescence microscopy using polyclonal antiserum against human PEX14 (ref. [45]) (1:400 diluted) or monoclonal antibodies against human PEX19 (BD Biosciences, MA5-17266 Thermo Scientific; 1:400 diluted). Statistical analysis was carried out from three independent transfections of each pIRES-PEX19-eGFP-PTS1 expression plasmid. Based on the appearance of eGFP-PTS1 fluorescence pattern, about 100 cells of each experiment were visually categorized into three classes, (i) full complementation of peroxisomal import as visualized by punctuate staining pattern, (ii) partial complementation as indicated by diffuse cytosolic staining with few dots, (iii) no complementation resulting in only cytosolic staining. All micrographs were recorded on a Zeiss Axioplan 2 microscope with a Zeiss Plan-Apochromat × 63/1.4 oil objective and an Axiocam MR digital camera, and were processed with AxioVision 4.6 software (Zeiss, Jena, Germany). The steady-state level of PEX19 expression was assessed by immunoblot analysis, using monoclonal mouse antibodies against HsPEX19 (BD Biosciences, MA5-17266; 1:1,000 diluted) (Supplementary Fig. 9)."}},
  "note": "Numbering of substitutions follows the chain as printed. Numbers in names are those of the source. Entries after “also recorded” stand apart in the source; their conditions may differ.",
  "data": [
    {"molecule": "HFTKVFSAFALVRTIR [PEX13 peptide, peptide derived from the PMP PEX13]", "values": [
      {"measurement": "NMR chemical shift perturbations / line broadening of farnesylated PEX19 CTD", "setting": "farnesylated PEX19 CTD", "result": "severe line broadening"},
      {"measurement": "NMR chemical shift perturbations / line broadening of farnesylated PEX19 CTD", "setting": "farnesylated PEX19 CTD; listed as PEX13", "result": "even stronger NMR chemical shift perturbation changes to helix α1, and significant line broadening in the lid region"}
    ]},
    {"molecule": "B1", "values": [
      {"measurement": "tumbling correlation time τc", "setting": "[1]", "result": 11.4, "unit": "ns"},
      {"measurement": "oligomeric state in solution", "setting": "[1]", "result": "monomeric in solution"},
      {"measurement": "elution volume after start of the gradient", "setting": "[2]", "result": 9.66, "unit": "mL"},
      {"measurement": "ΔV, difference in elution volume between farnesylated and non-farnesylated protein", "setting": "[2]", "result": 5.08, "unit": "mL"}
    ]},
    {"molecule": "B2", "values": [
      {"measurement": "elution volume after start of the gradient", "setting": "[2]", "result": 8.40, "unit": "mL"},
      {"measurement": "ΔV, difference in elution volume between farnesylated and non-farnesylated protein", "setting": "[2]", "result": 8.01, "unit": "mL"}
    ]},
    {"molecule": "B3", "values": [
      {"measurement": "elution volume after start of the gradient", "setting": "[2]", "result": 11.26, "unit": "mL"}
    ]},
    {"molecule": "B4", "values": [
      {"measurement": "elution volume after start of the gradient", "setting": "[2]", "result": 16.41, "unit": "mL"}
    ]},
    {"molecule": "B5", "values": [
      {"measurement": "elution volume after start of the gradient", "setting": "[2]", "result": 4.60, "unit": "mL"},
      {"measurement": "functional complementation (in words)", "setting": "[3]", "result": "not capable of rescuing the ΔPEX19 phenotype; also recorded: cannot restore peroxisomal biogenesis"}
    ]},
    {"molecule": "B6", "values": [
      {"measurement": "elution volume after start of the gradient", "setting": "[2]", "result": 17.9, "unit": "mL"}
    ]},
    {"molecule": "B7", "values": [
      {"measurement": "tumbling correlation time τc", "setting": "[1]", "result": 10.5, "unit": "ns"},
      {"measurement": "oligomeric state in solution", "setting": "[1]", "result": "monomeric in solution"},
      {"measurement": "elution volume after start of the gradient", "setting": "[2]", "result": 14.74, "unit": "mL"}
    ]},
    {"molecule": "B8", "values": [
      {"measurement": "functional complementation (in words)", "setting": "[3]", "result": "impaired although less strongly"},
      {"measurement": "cells showing restored peroxisomal protein transport (functional complementation)", "setting": "[3]; at least 100 cells in three independent transfections, series of Fig. 3c", "result": 23, "unit": "%"}
    ]},
    {"molecule": "B9", "values": [
      {"measurement": "cells displaying import-competent peroxisomes (complementation rate)", "setting": "[3]; 100 cells each of three independent transfections, series of Fig. 5d", "result": 20, "unit": "%"}
    ]}
  ]
}
